Data set [1] concerns Ac-Agp57-Tat(47-57)-NH2 (HIV-1?). The data set is described as follows: EMSA. Conditions: with 10 ug/mL poly(dI-dC); unit inferred, inferred nM from comparison with 67 ± 19. (In general: In EMSA bound probe runs differently from free probe, usually more slowly.)
In data set [2] the test system is AgbTat (all six Arg replaced by Agb) (HIV-1?). The data set is described as follows: EMSA. The following applies: apparent; with 10 ug/mL poly(dI-dC); 50 mM Tris-HCl pH 7.4, 50 mM KCl.
Data set [3] concerns AghTat (all six Arg replaced by Agh) (HIV-1?). Nature of the data set: EMSA. The following applies: apparent; with 10 ug/mL poly(dI-dC); 50 mM Tris-HCl pH 7.4, 50 mM KCl.
Data set [4] deals with ArgTat (Tat(47-57), Tat-Arg) (HIV-1?). The data set is described as follows: EMSA.
Data set [5] has as its system Tat-Cit49 (HIV-1?). The data set is described as follows: EMSA. The following applies: with 10 ug/mL poly(dI-dC), 25 C.
Data set [6] concerns Tat-Cit52 (HIV-1?). The data set is described as follows: EMSA. Conditions: with 10 ug/mL poly(dI-dC), 25 C.
The subject of data set [7] is Tat-Cit53 (HIV-1?). The data set is described as follows: EMSA. The following applies: with 10 ug/mL poly(dI-dC), 25 C.
Data set [8] has as its system Tat-Cit55 (HIV-1?). The data set is described as follows: EMSA. The following applies: with 10 ug/mL poly(dI-dC), 25 C.
Data set [9] relates to Tat-Cit56 (HIV-1?). Nature of the data set: EMSA. The following applies: with 10 ug/mL poly(dI-dC), 25 C.
In data set [10] the test system is Tat-Cit57 (HIV-1?). The data set is described as follows: EMSA. The following applies: with 10 ug/mL poly(dI-dC), 25 C.
In data set [11] the test system is AgbTat (all six Arg replaced by Agb) (HIV-1?). Nature of the data set: FP. Conditions: apparent; 1:1 fit; 50 mM Tris-HCl pH 7.4, 20 mM KCl, 0.02% Tween-20, room temperature.
Data set [12] relates to AghTat (all six Arg replaced by Agh) (HIV-1?). The data set is described as follows: FP. The following applies: apparent; 1:1 fit; 50 mM Tris-HCl pH 7.4, 20 mM KCl, 0.02% Tween-20, room temperature.
Data set [13] has as its system ArgTat (Tat(47-57), Tat-Arg) (HIV-1?). The data set is described as follows: FP. Conditions: apparent; 1:1 fit; 50 mM Tris-HCl pH 7.4, 20 mM KCl, 0.02% Tween-20, room temperature, 25 nM RNA.
Data set [14] relates to Tat-Cit49 (HIV-1?). The data set is described as follows: FP. Conditions: 50 mM Tris-HCl pH 7.4, 20 mM KCl, 0.02% Tween-20, room temperature.
For data set [15], the system named is Tat-Cit52 (HIV-1?). Nature of the data set: FP. The following applies: 50 mM Tris-HCl pH 7.4, 20 mM KCl, 0.02% Tween-20, room temperature.
For data set [16], the system named is Tat-Cit53 (HIV-1?). The data set is described as follows: FP. Conditions: 50 mM Tris-HCl pH 7.4, 20 mM KCl, 0.02% Tween-20, room temperature.
In data set [17] the test system is Tat-Cit55 (HIV-1?). Nature of the data set: FP. Conditions: 50 mM Tris-HCl pH 7.4, 20 mM KCl, 0.02% Tween-20, room temperature.
The test system of data set [18] is Tat-Cit56 (HIV-1?). Nature of the data set: FP. Conditions: 50 mM Tris-HCl pH 7.4, 20 mM KCl, 0.02% Tween-20, room temperature.
Data set [19] deals with Tat-Cit57 (HIV-1?). Nature of the data set: FP. Conditions: 50 mM Tris-HCl pH 7.4, 20 mM KCl, 0.02% Tween-20, room temperature.

Turning to HIV TAR RNA (F-TAR-RNA), the Kd was found to be 56 nM in data set [1]; 31 nM in data set [2]; 450 nM in data set [3]; 67 nM in [4]; 138 nM in data set [5]; 235 nM in [6]. Further, the Kd in data set [7] came out at 344 nM; in [8] it was 279 nM; in data set [9], 164 nM; in data set [10], 146 nM; in data set [11], 32 nM; in data set [12] it was 36 nM. For the same substance, the Kd was 25 nM in data set [13]; 94 nM in [14]; 116 nM in [15]; 102 nM in data set [16]; 99 nM in data set [17]; 55 nM in [18]. This substance also returned a Kd in data set [19] of 49 nM.

Source of the values: US20130109618.
